In patent US20030148377A1, “Binding compounds and methods for identifying binding compounds” (priority 2000, published 2003):

Biological target: T1, ZAP-70 (Homo sapiens, UniProt P43403)
T1 construct: made in house; host or cells: Sf9 cells (baculovirus)
T1 sequence (P43403 1-619): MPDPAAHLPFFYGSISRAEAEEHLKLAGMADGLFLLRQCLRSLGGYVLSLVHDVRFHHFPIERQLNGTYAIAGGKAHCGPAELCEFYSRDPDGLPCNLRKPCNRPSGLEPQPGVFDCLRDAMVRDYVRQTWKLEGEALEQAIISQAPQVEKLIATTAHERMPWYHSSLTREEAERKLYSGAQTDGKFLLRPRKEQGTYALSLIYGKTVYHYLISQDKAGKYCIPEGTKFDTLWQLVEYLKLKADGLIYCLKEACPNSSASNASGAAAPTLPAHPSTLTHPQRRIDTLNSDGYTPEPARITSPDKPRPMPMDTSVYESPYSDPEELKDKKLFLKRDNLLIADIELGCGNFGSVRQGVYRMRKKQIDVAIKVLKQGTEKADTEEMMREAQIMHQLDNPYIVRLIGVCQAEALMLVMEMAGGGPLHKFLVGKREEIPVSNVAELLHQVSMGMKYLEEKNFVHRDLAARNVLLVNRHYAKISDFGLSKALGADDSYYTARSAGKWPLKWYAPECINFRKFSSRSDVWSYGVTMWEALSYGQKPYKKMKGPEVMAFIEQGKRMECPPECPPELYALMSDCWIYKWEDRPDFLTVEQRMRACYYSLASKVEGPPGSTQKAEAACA
Assay: Inhibition of tubulin phosphorylation by ZAP-70
Type: biochemical
Settings: tubulin (5 μM) as substrate; FIG. 1D; compared to peptide 4
Description: FIG. 1A: A glutathione-S-transferase chimera of ZAP-70 was purified from Sf9 cells and assayed for its ability to phosphorylate tubulin in the presence of 0, 50, or 100 μM of peptide 1 (SEQ ID NO: 5) or peptide 2 (SEQ ID NO: 6). The assay was carried out in kinase buffer (5 mM MnCl2, 5 mM MgCl2, 25 mM Tris [pH 7.4]), 50 μM ATP, and […] [γ-^32P]ATP for 5 min at 30° C. ^32P-phosphorylated tubulin was separated on SDS-PAGE, visualized by autoradiography (inset), and quantitated using a molecular imager (Bio-Rad).
FIG. 1D: The ZAP-70 Tyr-kinase assay was as described above, using tubulin (5 μM) as substrate. […]
Synthetic peptides, tubulin, or GST-band III (construct kindly provided by A. Weiss, University of California, San Francisco) (Zhao and Weiss, 1996) were phosphorylated by ZAP-70-GST-fused protein in the presence or absence of the indicated amount of inhibitory peptides in the kinase buffer (10 mM MnCl2, 50 mM Tris [pH 7.4], 1 mM DTT), 100 μM ATP, and 5 μCi [γ-^32P]ATP for 5 min (or 10 min for GST-band-III) at 30° C. The amount of radioactivity incorporated into substrate peptide was determined using the phosphocellulose assay. […] Phosphorylated tubulin, GST-band III, and myelin basic protein were separated on SDS-PAGE, visualized by autoradiography, and quantitated using a molecular imager (Bio-Rad, Hercules, Calif.).

Sequence: KLILYLLLL [peptide 6, identical to peptide 4 except for Tyr replacing the Phe]
- ZAP-70 inhibitory effect (in words): little effect on peptide binding to ZAP-70
